Experimental findings from patent publication US20170240883A1, “CYCLIC PEPTIDES EXPRESSED BY A GENETIC PACKAGE” (Miti Biosystems GmbH, priority 2014, published 2017) are described below.

The test concerns the target T1, Human Plasma Kallikrein (Homo sapiens, UniProt P03952).
T1 construct: purchased Molecular Innovations, Inc, USA
The experiment in a line: Phage selection of leader-free SynLib1 library modified by Celf ProcM enzyme-leader fusions on biotinylated kallikrein (output titre). Format: binding. To be noted: for difference in titre using 9.75 nM kallikrein and using 0 nM kallikrein: R3. The procedure:
Human Plasma Kallikrein (Molecular Innovations, Inc, USA) at 1.15 mg/ml (13 μM) solution in 4 mM acetate, 150 mM NaCl, pH 5.3 was biotinylated using NHS-PEG4-Biotin from the EZ-link micro-PEO4-biotinylation kit (Pierce Biotechnology, USA). 680 μl of water was added to the contents of the pre-weighed vial of biotinylation reagent to make a 5 mM solution. 1 μl of this solution was added to 100 μl of the kallikrein solution. This was incubated at RT for 1 hour prior to the separation of the biotinylated protein from the unreacted biotin, using a 2 ml Spin Desalting column (Pierce Biotechnology, USA). The volume of the kallikrein was made up to 350 μl with PBS (Formedium Ltd, UK) and was loaded onto the spin column which had been equilibrated with PBS (as per the manufacturer's instructions). When this solution had been absorbed into the column matrix, a further 50 μl of PBS was added on top and the column was spun in a centrifuge at 1000 g for 2 min. 395 μl of solution was collected, making the concentration of the biotinylated kallikrein about 3.25 μM.
150 μl of stock leader-free SynLib1 library (4.5e11 phage per μl) was added to 1850 μl of TE buffer, 2 μl 1 M TCEP (Melford Biolaboratories Ltd, UK) and incubated at RT for 20 minutes to reduce the peptides on the phage. 400 μl of 2.5 M NaCl, 20% w/v PEG 8000 was added, incubated at RT for five minutes and the precipitated phages were collected by centrifugation at 15000 g for five minutes. The supernatant was discarded and the phages were resuspended in 150 μl of 25 mM Tris pH 7.5 (Sigma Aldrich, Austria), 1 μM TCEP.
Selections are performed by removing streptavidin-binding clones by pre-exposing the library to streptavidin resin, which is then discarded, mixing the library with decreasing concentrations of biotinylated target for an hour at each round of selection, capture of the biotinylated target and thereby any phage binding the target with magnetic streptavidin resin followed by extensive washing of the resin. Finally, the washed resin has the phage eluted from the target by exposure to a low pH solution, neutralisation of the solution and infection of E. coli by the eluted phage.
Round 1 (R1) of the selection was performed by adding 50 μl of LodeStars streptavidin resin (Agilent Technologies, USA), from which the liquid had been removed by magnetic capture, to the modified phage solution for 30 minutes to capture the peptide sequence that bind to streptavidin (deselection). The resin was captured magnetically and the phage-containing supernatant was collected and made up to 500 μl with 25 mM Tris pH 7.5, 0.05% Tween 20 (Melford Biolaboratories Ltd, UK). Biotinylated kallikrein was added to 100 nM, and mixed at RT for 1 hour prior to processing on a KingFisher mL (Thermo Fisher, Austria) magnetic particle washer. The processing involved the KingFisher transferring 25 μl of streptavidin resin to the phage solution and mixing for five minutes. The resin/phage were then collected and washed in 8×1 ml of PBS+0.05% Tween 20 (PBST). The resin was then mixed in 50 μl of 50 mM glycine pH 2.2 (Melford Biolaboratories Ltd, UK) for five minutes to elute the phage and the resin was removed. The phage-containing supernatant was neutralised with 10 μl of 1 M Tris pH 8.0 and added to 1 ml of TG1 cells at A600 of 0.6 followed by incubation at 37° C., 250 rpm for 1 hour. The phage titre was determination by adding 4 μl of culture to 96 μl of water, which was used to make five, 10-fold dilutions; 10 μl from each of these was spotted onto an LB+tetracycline agar plate. The remainder of the culture was made up to 11 ml with 2TY plus tetracycline and incubated at 37° C., 250 rpm overnight.
10 ml of overnight culture was reduced with 10 μl of 1 M TCEP for 20 min at RT followed by removal of the cells by centrifugation at 15000 g for five minutes. […]

T1 sequence (P03952 20-638): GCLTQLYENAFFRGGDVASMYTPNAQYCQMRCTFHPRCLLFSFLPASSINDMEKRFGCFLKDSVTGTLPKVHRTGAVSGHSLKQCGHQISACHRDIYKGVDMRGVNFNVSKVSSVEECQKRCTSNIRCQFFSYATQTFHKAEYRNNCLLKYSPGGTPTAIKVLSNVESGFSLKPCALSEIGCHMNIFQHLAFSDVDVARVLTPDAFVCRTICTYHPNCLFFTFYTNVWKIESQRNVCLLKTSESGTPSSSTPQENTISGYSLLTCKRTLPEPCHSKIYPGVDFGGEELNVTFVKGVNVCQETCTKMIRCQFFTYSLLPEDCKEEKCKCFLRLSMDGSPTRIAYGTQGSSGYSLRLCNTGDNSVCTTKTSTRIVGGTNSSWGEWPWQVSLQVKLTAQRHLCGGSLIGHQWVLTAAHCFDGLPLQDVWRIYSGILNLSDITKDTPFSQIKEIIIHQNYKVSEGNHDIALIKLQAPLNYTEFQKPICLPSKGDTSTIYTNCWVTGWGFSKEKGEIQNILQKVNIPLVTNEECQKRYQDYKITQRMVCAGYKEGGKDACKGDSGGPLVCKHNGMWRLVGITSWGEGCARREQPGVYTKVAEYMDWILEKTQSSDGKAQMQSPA

B1: CelfProcM10: C-terminal leaderA4.3 ProcM enzyme-leader fusion, 10-pair linker, used to modify leader-free SynLib1 (protein)
chain: MSEEQLKAFIAKVQADTSLQEQLKAEGADVVAIAKAAGFTITTEDLNSHRQNLTDDELEGVAGGSASGSGSGSAMESPSSWKTSWLAAIAPDEPHKFDRRLEWDELSEENFFAALNSEPASLEEDDPCFEEALQDALEALKAAWDLPLLPVDNNLNRPFVDVWWPIRCHSAESLRQSFVSDSAGLADEIFDQLADSLLDRLCALGDQVLWEAFNKERTPGTMLLAHLGAAGDGSGPPVREHYERFIQSHRRNGLAPLLKEFPVLGRLIGTVLSLWFQGSVEMLQRICADRTVLQQCFAIPCGHHLKTVKQGLSDPHRGGRAVAVLEFADPNSTANSSMHVVYKPKDMAVDAAYQATLADLNTHSDLSPLRTLAIHNGNGYGYMEHVVHHLCANDKELTNFYFNAGRLTALLHLLGCTDCHHENLIACGDQLLLIDTETLLEADLPDHISDASSTTAQPKPSSLQKQFQRSVLRSGLLPQWMFLGESKLAIDISALGMSPPNKPERIALGWLGFNSDGMMPGRVSQPVEIPTSLPVGIGEVNPFDRFLEDFCDGFSMQSEALIKLRNRWLDVNGVLAHFAGLPRRIVLRATRVYFTIQRQQLEPTALRSPLAQALKLEQLTRSFLLAESKPLHWPIFAAEVKQMQHLDIPFFTHLIDADALQLGGLEQELPGFIQTSGLAAAYERLRNLDTDEIAFQLRLIRGAVEARELHTTPESSPTLPPPATPEALMSSSAETSLEAAKRIAHRLLELAIRDSQGQVEWLGMDLGADGESFSFGPVGLSLYGGSIGIAHLLQRLQAQQVSLMDADAIQTAILQPLVGLVDQPSDDGRRRWWRDQPLGLSGCGGTLLALTLQGEQAMANSLLAAALPRFIEADQQLDLIGGCAGLIGSLVQLGTESALQLALRAGDHLIAQQNEEGAWSSSSSQPGLLGFSHGTAGYAAALAHLHAFSADERYRTAAAAALAYERARFNKDAGNWPDYRSIGRDSDSDEPSFMASWCHGAPGIALGRACLWGTALWDEECTKEIGIGLQTTAAVSSVSTDHLCCGSLGLMVLLEMLSAGPWPIDNQLRSHCQDVAFQYRLQALQRCSAEPIKLRCFGTKEGLLVLPGFFTGLSGMGLALLEDDPSRAVVSQLISAGLWPTESASGSGSGSGSTSGSGSGSAMSEEQLKAFIAKVQADTSLQEQLKAEGADVVAIAKAAGFTITTEDLNSHRQNLTDDELEGVAGG
modifications: Enzyme-Leader-Fusion
As for B1, the “difference in titre using 9.75 nM kallikrein and using 0 nM kallikrein” value (“difference in titre” for short) is 6.5 fold. Further, for the setting “R1, 100 nM kallikrein”, the “output titre (number of phages eluted at the end of the round)” value (“output titre” below) stood at 4.2e6. Further, where the note is “R2, 33 nM kallikrein”, the “output titre” value is 2.9e5. The “output titre” value (R3, 0 nM kallikrein) worked out at 5.3e4. The “output titre” value (R3, 9.75 nM kallikrein) is recorded as 3.4e5.

B2: CelfProcM5: C-terminal leaderA4.3 ProcM enzyme-leader fusion, 5-pair linker, used to modify leader-free SynLib1 (protein)
chain: MSEEQLKAFIAKVQADTSLQEQLKAEGADVVAIAKAAGFTITTEDLNSHRQNLTDDELEGVAGGSASGSGSGSAMESPSSWKTSWLAAIAPDEPHKFDRRLEWDELSEENFFAALNSEPASLEEDDPCFEEALQDALEALKAAWDLPLLPVDNNLNRPFVDVWWPIRCHSAESLRQSFVSDSAGLADEIFDQLADSLLDRLCALGDQVLWEAFNKERTPGTMLLAHLGAAGDGSGPPVREHYERFIQSHRRNGLAPLLKEFPVLGRLIGTVLSLWFQGSVEMLQRICADRTVLQQCFAIPCGHHLKTVKQGLSDPHRGGRAVAVLEFADPNSTANSSMHVVYKPKDMAVDAAYQATLADLNTHSDLSPLRTLAIHNGNGYGYMEHVVHHLCANDKELTNFYFNAGRLTALLHLLGCTDCHHENLIACGDQLLLIDTETLLEADLPDHISDASSTTAQPKPSSLQKQFQRSVLRSGLLPQWMFLGESKLAIDISALGMSPPNKPERIALGWLGFNSDGMMPGRVSQPVEIPTSLPVGIGEVNPFDRFLEDFCDGFSMQSEALIKLRNRWLDVNGVLAHFAGLPRRIVLRATRVYFTIQRQQLEPTALRSPLAQALKLEQLTRSFLLAESKPLHWPIFAAEVKQMQHLDIPFFTHLIDADALQLGGLEQELPGFIQTSGLAAAYERLRNLDTDEIAFQLRLIRGAVEARELHTTPESSPTLPPPATPEALMSSSAETSLEAAKRIAHRLLELAIRDSQGQVEWLGMDLGADGESFSFGPVGLSLYGGSIGIAHLLQRLQAQQVSLMDADAIQTAILQPLVGLVDQPSDDGRRRWWRDQPLGLSGCGGTLLALTLQGEQAMANSLLAAALPRFIEADQQLDLIGGCAGLIGSLVQLGTESALQLALRAGDHLIAQQNEEGAWSSSSSQPGLLGFSHGTAGYAAALAHLHAFSADERYRTAAAAALAYERARFNKDAGNWPDYRSIGRDSDSDEPSFMASWCHGAPGIALGRACLWGTALWDEECTKEIGIGLQTTAAVSSVSTDHLCCGSLGLMVLLEMLSAGPWPIDNQLRSHCQDVAFQYRLQALQRCSAEPIKLRCFGTKEGLLVLPGFFTGLSGMGLALLEDDPSRAVVSQLISAGLWPTESASGSGSGSAMSEEQLKAFIAKVQADTSLQEQLKAEGADVVAIAKAAGFTITTEDLNSHRQNLTDDELEGVAGG
modifications: Enzyme-Leader-Fusion
For the molecule B2, the “difference in titre” value stood at 10 fold. Moreover, the “output titre” value (R1, 100 nM kallikrein) worked out at 6.4e5. Besides, the “output titre” value (R2, 33 nM kallikrein) is 5.3e5. Besides, where the note is “R3, 0 nM kallikrein”, the “output titre” value came out at 5.0e4. Moreover, under “R3, 9.75 nM kallikrein”, the “output titre” value was found to be 5.0e5.

B3: CelfProcM15: C-terminal leaderA4.3 ProcM enzyme-leader fusion, 15-pair linker, used to modify leader-free SynLib1 (protein)
chain: MSEEQLKAFIAKVQADTSLQEQLKAEGADVVAIAKAAGFTITTEDLNSHRQNLTDDELEGVAGGSASGSGSGSAMESPSSWKTSWLAAIAPDEPHKFDRRLEWDELSEENFFAALNSEPASLEEDDPCFEEALQDALEALKAAWDLPLLPVDNNLNRPFVDVWWPIRCHSAESLRQSFVSDSAGLADEIFDQLADSLLDRLCALGDQVLWEAFNKERTPGTMLLAHLGAAGDGSGPPVREHYERFIQSHRRNGLAPLLKEFPVLGRLIGTVLSLWFQGSVEMLQRICADRTVLQQCFAIPCGHHLKTVKQGLSDPHRGGRAVAVLEFADPNSTANSSMHVVYKPKDMAVDAAYQATLADLNTHSDLSPLRTLAIHNGNGYGYMEHVVHHLCANDKELTNFYFNAGRLTALLHLLGCTDCHHENLIACGDQLLLIDTETLLEADLPDHISDASSTTAQPKPSSLQKQFQRSVLRSGLLPQWMFLGESKLAIDISALGMSPPNKPERIALGWLGFNSDGMMPGRVSQPVEIPTSLPVGIGEVNPFDRFLEDFCDGFSMQSEALIKLRNRWLDVNGVLAHFAGLPRRIVLRATRVYFTIQRQQLEPTALRSPLAQALKLEQLTRSFLLAESKPLHWPIFAAEVKQMQHLDIPFFTHLIDADALQLGGLEQELPGFIQTSGLAAAYERLRNLDTDEIAFQLRLIRGAVEARELHTTPESSPTLPPPATPEALMSSSAETSLEAAKRIAHRLLELAIRDSQGQVEWLGMDLGADGESFSFGPVGLSLYGGSIGIAHLLQRLQAQQVSLMDADAIQTAILQPLVGLVDQPSDDGRRRWWRDQPLGLSGCGGTLLALTLQGEQAMANSLLAAALPRFIEADQQLDLIGGCAGLIGSLVQLGTESALQLALRAGDHLIAQQNEEGAWSSSSSQPGLLGFSHGTAGYAAALAHLHAFSADERYRTAAAAALAYERARFNKDAGNWPDYRSIGRDSDSDEPSFMASWCHGAPGIALGRACLWGTALWDEECTKEIGIGLQTTAAVSSVSTDHLCCGSLGLMVLLEMLSAGPWPIDNQLRSHCQDVAFQYRLQALQRCSAEPIKLRCFGTKEGLLVLPGFFTGLSGMGLALLEDDPSRAVVSQLISAGLWPTESASGSGSGSGSGSGSGSGSGSTSGSGSGSAMSEEQLKAFIAKVQADTSLQEQLKAEGADVVAIAKAAGFTITTEDLNSHRQNLTDDELEGVAGG
modifications: Enzyme-Leader-Fusion
As to B3, the “difference in titre” value came out at 36 fold. For the same molecule, the “output titre” value (R1, 100 nM kallikrein) is 2.7e6. Also, the “output titre” value (R2, 33 nM kallikrein) is 2.7e5. The “output titre” value (R3, 0 nM kallikrein) came to 2.7e4. For the same molecule, the “output titre” value (R3, 9.75 nM kallikrein) came to 9.5e5.
